Experiment: soluble on expression in E. coli; label from the status in PepcDB or PDB records

Soluble on expression in E. coli, not soluble:
MGSDKIHHHHHHMNRTAVGVDIAKSVFQVHYVDPETGEIVNKPIKRAKFLEFFANRARCLIGMEACGGAQHWARQLMKMGHEIRLMPAEFVKAFNIRNKNDAADARAIWLAVQQPGKPVAVKTEMQQAMLALHRMRRQLVTFRTMQINGLRGLPTEYGEVMGRGRAALDKAIPEVLRRVAERLPAVVIDTLREQWNGLTKLDEQVACIERRMREWKKQDKAVQAISEIPGVGLLTATAAVAMMGDAKAFSSGREFAAWAGLVPKQTGSGGKVNLHGISRRGDTYLRTLLIHGARSVLTHAKDPGPWVEQMKKRRPLNVVVVALANKIARTIWAGTFLRYSYNFP
MGSDKIHHHHHHMNRVILFHFHFFKNAGSAVDYILEKNFGDRFVKKEFKLWPYYENIKEVIKWIENESDAVAFSSHTARLFDSTLLERRGIKIIPIIFVRHPIIRIHSAYHYERKQVDIFRPGPVIARNTDFKGYVEIRLAIPRQEFNVSNFHVFRLADMLHGEKNMKPLEKALIALKRLPFIGLVEEFEKSMTKLEETVREYFPEFKASVIRTNVQFSPDMPLEERLKIIKNEVGKDFYKKLMEINEEDMVLWEKVVDMYKEGF
MGSDKIHHHHHHMNSSLQVGIGIDVGSSSARIGVYNYYNDALLEMAQEPVPYYQDSSKKSWKFWQKSTEIIKALQKCLQKLNIREYEVKSCGVSATCSLAIFERDRTSNMLIPYPNEDNVIFWMDSSAVNECQWLNMQCPQQLLDYLGGKFVPEMGVPKLKYFLDEYSHLRDKHFHIFDLHQYIAYELSRLYEWNIEGLLGRENLNGIGNDGEVSGWSSSFYKNIINLPSNVSIGTTSLVANKHISTTVVRSCIDSYASWFAVASPHLETSLFMIAGTSSCYMYGTTISDTRIPGVWGPFDTILDNRGDFSVYAAGQSCTGKLIEHLFESHPCARKILKDGADIYQVLEQTIRDIEKNNGLSIHILTKDMFFYGDYEGNRTPFADPRIKGSFIGESTDTSMLNLTYKYICILEFLSFQTKLIIDTFQNENSNIHIKELRISGSQAKNERLLSLISLVNNGVAIIKPKENVDMMGIKGAYVLAKSAKEKKQLADVITERDISNDSEKFESLAEYRLGNDSILLRKLLCVKYHIHLDMAKQQKRYHKLVDEVFQHL
MGSDKIHHHHHHMNSTTKSKEFEQHYSGTLSDYVTAIAWSPQGKTLAATSAAGEVVLWNDGELTTLQTGNGKSVDCLAFSPDGKFLAVGGQDGQVKIWQNTELIATLENAPAWVDKLAWNYTSNQLAFSLGRYVQVWDVDTHEIVVTLNFDNSSVLGIDWRIDGQYLAISGYKGVKIWHSQNWDEEPYSLDMTTVSLAMAWSPDGKFLASGNMDRSVTVLEWNNPDPWVMRGFPGKIRQLAWSEAMTKVGAPILASSSVEGIVVWEKLEDDTLGWEARVLTNHVGTINAIAFAPKSFLLASAAADGWLCLWNQAKEVSQIITGVSGGFSTLAWHPQGKLLAAGGEQGELVIWSKVLRGQGFGRS
MGSDKIHHHHHHMNTADNVVEMRSISKGFNGVSVLKDVSFDVRKGEVHALAGGNGAGKSTLMKILQGVYQADAGEILIGGKPVAINSIQDAKSAGIGMVFQEFSLVPSLTVAQNIFLAAEPLGAGGLIDDRASERRAKEIFAEMEVKVDPRAEVSRLGTAYWQLTEIAKALSQNAQVLIMDEPTASLARHESEALFELIDRLKQRGISIIYISHRMDEVYRLADRITILRDGRRLLTEPLTGVTPEQIVEGIVGKKIEGQLAYRERDQVAHDSAPLLEVRGLNAGPRVRDISFSLRPGEILGLAGLMGSGRTELARALFGIDRRDSGEIFIRGERINLTSPQQAITAGVALIPEDRRAQGLVLEHSVQDNLLLPLLGQIQRGPFLDGARGKELSSSLIKRFAVKVAHPHRPVRLLSGGNQQKVVIAKWLGTDPDILILDEPTAGVDIGTKSEILDMIRELASAGKAVIVISSEYPELLAVSDRVLVLKDGSIIRDIPRSEIADEEYLQLAVQGV
MGSDKIHHHHHHMNTIGERLKYLRKLNNLTQKQVAEKTGVQRGNISHYEKNDFLPSRVALISFANFFKTNYDWIVYGKGAIPKSIDEVMYAKSNSIAECNNGAAVDFSKRLIFTMKYFHETIDGLCLKLNISKDIFHEILIKKNVSAFDLFKICNYFNVSMDWMFNGNITYLKSDAKLQQAYLMNSKGNKPLSYDNHGMVQCTCEEKKLLIFFENLNTKDKSLVIDILNSVNNQASMDIQKLIK
MGSDKIHHHHHHMNTLASIQELARAIRNMIRTGIVVETDLDAGRCRVQTGGIYTDWLQWLTHRAGRSRTWWAPSIGEQVMILAVGGELDTAFVLPGIYSDDNPAPSASADAWHVEFPDGAVMSYEPETGALTVTGIKTADVTASDSVAVSVPVVLVKAETRVTLDTPEVVCTNKLTTGTLEVKQGGKMSGDIEHSGGAFTSNGVQVDKHGHGGIRRGDEWTEGTQ
MGSDKIHHHHHHMNVTDLPQACISLIENVPGIDFIDEDFAIFDNIDDIPSLDHPMRIDAVVFALCTKGFMRIRINMEEYVVGENHLVLSLPDQIIQHVERSEDVAGIFIVISKNFMEEIIPHIQNTLPAFFYIKEHPVTELNAEEIGCIKEYHSFLWKKVKAKRHPYRKEIAQSLLLAVFHEVYGMFKNHMPIEVKKSRQEELFAAFIQTLALHHKQERSVAFYAGKLCVTPKYLSLLVKNVSNRTAGEWIDNYVVLEAKALLSSSTLSIQEISDRLNFTNQSFFGKYFKQHVGISPTEYRKKW
MGSDKIHHHHHHMNWGKYATYSEDFFEKLTSESNQLDLYIFVQYLLHYQLSEAVDYCHQLGIALKGDIAIGIAHDSVDAWTHPELFHLDKQAGAPPDIFAVNGQNWGFPTYNWKKMAEDGYAWWKKRLTAMSNYFDAYRLDHILGFFRIWQMPEDSVRGLLGQFSPAIALSAEEIENSYGIPLRQWGLERFINPFIKDWVIDEIFGRDNRDWIIQTFLDYIGNGNYTFQNEYNNQKKVEKAQLEDWVREGLYKLHENIILLKDDENPEKYHPRISLIQTISFREFGDDYKGRLEKLYNDYFYGRNYEFWKEKAYEKLPVLKDATNMLACGEDLGMVPANVPDVMNHLNILRLIIERMPSDNRFVSPLNEVPYLSVLTTSSHDTSPLRAWWEENHEEIQRYYNEVMGWYGEAPYYASAEIIQEIVKRHLNSNAMMVILPIQDWLAMSEQLRKEDAKSEQINIPANPYHYWNYRLHCQLETLIDNQDWTEFLKKFIKESKRAY
MGSDKIHHHHHHMNWWLDPRIFEADNSELAMVLHPEWLNRRDVETIICDGSVRAGKTLIMSMSYVLWSMTNYNEEQFGIAGKTIGSLRRNVIRPLMRMLRGRGYEVKDKRADNLLVISHNGVTNYYYLFGGKDEGSQDLVQGITVAGFFFDEVALMPESFVNQATARASVDGAKFWFNCNPAGPYHWFKLEWLDQLDQHKAIHIHFTMKDNPSLSPETIDRYERMYTGVFYQRFILGQWVLSDGIIYDNFDKNKMVVKNPQGTARKYAVSIDYGTLNPTVFLMWGLYGDTWHLTKMYYYDGRHKHKQKTDEEYSAELDRFEDGLNPVEIIDPSAASFITLRRRGGHHVIKADNDVLDGIRKTGMAMNTGKIVFSPDLADLFKEFASYVWDEKAAEHGEDKPVKQHDHAMDAMRYFVMYMIGRQPTIQTFKLG
MGSDKIHHHHHHMNYIKRSLERKFLHMSKFFKAVLVTGARQVGKTTMLKHLAEGQNRTYVTLDNLMARNLAKTDPVLFFQTYKPPVLIDEVQYAPELFSQIKILCDSSEEPGLIWLTGSQQFEMMKNVRETLAGRIGIMTLYSLSKNEKDGIEFENSLDFSPECLFARQRIAEKNDVLKVFEHIWRGGMPQVLHADAEQRQEYYNAYVNTYLMRDVAELGGITDSLRFAKFLTACAALTSEQVNYKNLSEAADISQPTAKEWLRLLEGLGIVYLLQPYANNAFKRLTKAPKLYFCDTGLCAHLSMWLTPETLMNGAASGHYFENHVVAEMLKSYAYSASKAVITYFRDSNAKEIDIIVEANNQLHPLEIKKSASPNSREINKYTILDKSSIKRGHGGILCLCEEVVPIDEQNCFIPCNLI
MGSDKIHHHHHHMNYKELNKIFKETLSLRWDPVAVRMMRPGEEKPAQGIEPTVPLRHCQSIITARRGNCLYMPPRSHACPDGTGVLGLVEMSPKLRSGDLYLLFKKMPNIETARQMISSRPEFKAGSYEATLLAPLEKAAFEPDVVVFTLWPEQAMWLCCAQTYATGERQDFKTSGFNSACADLIVQTMTSGEMNISFGCYGARASSEIDDFELYLAIPTALLEPIAQALLKLSQKSIPEERKKIYLHPVMDKVGSRRAQSQGEGARVELFVDTERCMGDGLCVDFCPSGVLAMVEAGDRKVAQALHPDACSACYTCVGQCPQQAIQLSYN
MGSDKIHHHHHHMNYNKLSSATIQGIEAMKIDVEVDFDNRSVFNDIDVVGLGDTAVKESRKRVKSAILNSGFSLPHGKYVVNLAPGDVRKEGSMLDLPIALCILASTGIVQVSENILAIGELSLNGEVKRVNGVLPVLLSLSEMFSGTVLIPKENEEEAKCVKELDIYAVESLRECVEFLRGDRTLKRIEYSGIENTNLEYEIDFSDVRDHEMVKRAVEIAVAGFHNILMVGNPGSGKTMIAKRIPTIFPPMSEEEILETSKVYSASGYPGIVKLRPFRAPHHTASTVSIIGGGTNPRPGEISLAHNGVLFLDELPEFKRDVLEALRQPLEEGIVTVARAKFTVTYPARFMLVGAMNPCPCGNLGDPKQPCVCSPRDIMRYRKKISGPLLDRMDLVINVPKLSFEEMMKKPEGEKSSSIRERVMKAREIQKRRFRDTHISCNSQMSHRMLRRFVQLDEKSEDLLKRYVERYGLSGRKIDKVLKISRTIADLEGSNGVEMSHLAEALQYRFRES
MGSDKIHHHHHHMNYPSLVWHLKRTELFADFELAELEQVAATTPYRSYQPGEVIYRMDDPADALYFVRSGLVKISKLFPNGKEAILGVVGQHDTFGELLLQPEERRPTQAEALERTTLIVLPRQELQKLLSTKPDLAMKLIRLMAARLFEAQAWTATVSAYSAPERVASLLYRLAREFGRPHSQGVELNLKLNQEDIARMVGATRETVSHSLSRLKKGGAIVRARSPIIVQMDALKAFIDQEH
MGSDKIHHHHHHMPATAYSAIHGRDIRTLKQCPPVVDAMTYGFMVLLPCDVVVDKGTFSWDWQIPEPVTQNHPRAPLSFHTPGQLAGSPFATTGQAALKFNSFWTIEVEDGWSLFATHPVNREDLPFRLVTGLVDSDRFSDGGINFPAVWTEAGFSGVLAKGTPVAQCFAVPRAAPQLEYEVFDEERQASYARTVADVLSTPGVYRKRFRARRGRSTGE
MGSDKIHHHHHHMPELATREFWKDLQPIPDCFKPDAKPEVYLRNAPTEDERLYVPFTETVKSRPLWISPSENRWCDILMATSAGLVNRHYHPHEVFAYTISGKWGYLEHDWTATAGDFVYETPGEGHTLVAYEHEQPMRAFFIVKGPLVWLDEKGNADGIFDVHDYIAMCREHYDKIGVGAAYIDSLFR
MGSDKIHHHHHHMPEQNSFPPEVDHTRPNPARIYDYGLGGHHNFAADRDQFEKLLEVDPDARLVVSANRAFLRRAVRYCLRQGITQFLDLGSGIPTVGNVHEAAHQLNPRARVVYVDNEPIAVAHTRRLLRENENAEIVQADLRDPDAILGAPETQRLLDLSKPVGLMMVAVLHWVPSADVAGLLSRYREVLAPGSYLAISHLTSEHLPEQMGEVEDVFAETTEPVVYRPRSEAVKLFEGFELVPPGVVYTSQWQSEPYEMVEPPERTKIWAAVGRKL
MGSDKIHHHHHHMPFVSYAQNLEDVRLWRALKLFPRGFYIDVGANHPRIDSVTLAFYERGWRGINIEPLPHLHRELERERPEDLNLNLAIGEREGRATLYEMAASGLSTLDPELARQRQAEGCTATPREVKVSTLDAICAAHVEGPIHFLKIDVEGLEGAVLRGLDLNRWRPWLILAETPFDHDPEWKAPLLAAGYRFVHFDGLNGYYLAEEQARLEGAFALPPNLLDDFQLCHGHAMSHPVAPLEQALEQALQRAEDAERALRDWRALPWYRRLFG

Reference: the DeepSol protein solubility set
